The record followed here is publication PMC12014896 (2025).

Residue numbers refer to the chain shown, from its start.

Sequences and labels used below:
B1: COVIC-131 (antibody, V domains shown)
VH: EVQLVESGGGVVQPGRSLRLSCAASAFTFSSYDMHWVRQAPGKGLEWVAVISYDGSNKYYADSVKGRFTISRDNSKNTLYLQMNSLRAEDTAVYYCAKDGGKLWVYYFDYWGQGTTVTVSS
VL: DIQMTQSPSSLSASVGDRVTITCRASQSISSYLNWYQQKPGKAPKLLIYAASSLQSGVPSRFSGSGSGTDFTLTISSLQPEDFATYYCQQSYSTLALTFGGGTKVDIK
B2: COVIC-129 (antibody)
chain 1: QVQLQESGGGLVQAGGSLRLSCAASGRTFSEYAMGWFRQAPGKEREFVATISWSGGSTYYTDSVKGRFTISRDNAKNTVYLQMNSLKPDDTAVYYCAAAGLGTVVSEWDYDYDYWGQGTQVTVSSGGSGGSQVQLQESGGGLVQAGGSLRLSCAASGRTFSEYAMGWFRQAPGKEREFVATISWSGGSTYYTDSVKGRFTISRDNAKNTVYLQMNSLKPDDTAVYYCAAAGLGTVVSEWDYDYDYWGQGTQVTVSSGGGGSGGGGSASTKGPSVFPLAPSSKSTSGGTAALGCLVKDYFPEPVTVSWNSGALTSGVHTFPAVLQSSGLYSLSSVVTVPSSSLGTQTYICNVNHKPSNTKVDKKVEPKSCDKTHTCPPCPAPELLGGKKKPLDGEYFTLQIRGRERFEMFRELNEALELKDAQAGKEPG
chain 2: QVQLQESGGGLVQAGGSLRLSCAASGRTFSEYAMGWFRQAPGKEREFVATISWSGGSTYYTDSVKGRFTISRDNAKNTVYLQMNSLKPDDTAVYYCAAAGLGTVVSEWDYDYDYWGQGTQVTVSSGGSGGSQVQLQESGGGLVQAGGSLRLSCAASGRTFSEYAMGWFRQAPGKEREFVATISWSGGSTYYTDSVKGRFTISRDNAKNTVYLQMNSLKPDDTAVYYCAAAGLGTVVSEWDYDYDYWGQGTQVTVSSGGGGSGGGGSKRTVAAPSVFIFPPSDEQLKSGTASVVCLLNNFYPREAKVQWKVDNALQSGNSQESVTEQDSKDSTYSLSSTLTLSKADYEKHKVYACEVTHQGLSSPVTKSFNRGEC
B3: COVIC-306 (antibody, V domains shown)
VH: QVQLVESGGGLVKPGGSLRLSCAASGFTVGSNYMSWVRQAPGKGLEWVSVIYSGGSTYYADSVKGRFTISRDNSKNTLYLQMNSLRAEDTAVYYCARGSSGAWYFDLWGRGTLVTVSS
VL: EIVMTQSPSSLSASVGDSVTITCQASQDISNYLNWYQQKPGKAPKLLIYDASNLETGVPSRFSGGGSGTDFTLTITSLQPEDIATYYCQQYDNFPPTFGPGTKVDIKR
B4: COVIC-93 (protein)
chain: MSSSSWLLLSLVAVTAAQSTIEEQVKTFLDKFNHEAEDLFYQCSLASWNYNTNITEENVQNMNNACDKWSAFLCEQSTLAQMYPLQEIQDLTVKLQLQALQQNGSCVLSEDKSKRLNTILNTMSTIYCTGKVCNPDNPQECLLLEPGLNEIMANSLDYNERLWAWESWRSEVGKQLRPLYEEYVVLKNEMARANHYEDYGDYWRGDYEVNGVDGYDYSRGQLIEDVEHTFEEIKPLYEHLHAYVRAKLMNAYPSYISPTGPLPAHLLGDMWGRFWTNLYSLTVPFGQKPNIDVTDAMVDQAWDAQRIFKEAEKFFVSVGLPNMTQGFWENSMLTDPGNGQKVCCYPTAWDLGKGDFRILMCTKVTMDDFLTAHHEMGHIQYDMAYAAQPFLLRNGANEGFHEAVGEIMSLSAATPKHLKSIGLLSPDFQEDNETEINFLLKQALTIVGTLPFTYMLEKWRWMVFKGEIPKDQWMKKWWEMKREIVGVVEPVPHDETYMDPASLFHVSNDYSFIRYYTRTLYQFQFQEALCQAAKHEGPLHKCDISNSTEAGQKLFNMLRLGKSEPWTLALENVVGAKNMNVRPLLNYFEPLFTWLKDQNKNSFVGWSTDWSPYADQSIKVRISLKSALGDKAYEWNDNEMYLFRSSVAYAMRQYFLKVKNQMILFGEEDVRVANLKPRISFNFFVTAPKNVSDITPRTEVEKAIRMSRSRINDCFRLNDNSLEFLGIQPTLGPPNQPPVECPPCPAPPVAGPSVFLFPPKPKDTLMISRTPEVTCVVVDVSHEDPEVQFNWYVDGVEVHNAKTKPREEQFNSTFRVVSVLTVVHQDWLNGKEYKCKVSNKGLPAPIEKTISKTKGQPREPQVYTLPPSREEMTKNQVSLTCLVKGFYPSDISVEWESNGQPENNYKTTPPMLDSDGSFFLYSKLTVDKSRWQQGNVFSCSVLHEALHSHYTQKSLSLSPGK
B5: COVIC-153 (antibody, V domains shown)
VH: EVQLVESGGGLIQPGGSLRLSCAASGLTVSSNYMSWVRQAPGKGLEWVSIIYSGGSTYYADSVKGRFTISRDNSKNTLYLQMNSLRAEDTAVYYCARLGGYYYYGMDVWGQGTTVTVSS
VL: DIQMTQSPSSLSASVGERVTITCQASQDIRNYLNWYQKKPGKAPKLLIYDSSNLETGVPSRFSGSGSGTDFTFTISSLQPEDIATYYCQQYDNLPITFGQGTRLEIKR
B6: COVIC-167 (antibody, V domains shown)
VH: B5 VH
VL: B5 VL with S65G
B7: COVIC-309 (antibody, V domains shown)
VH: EVQLVESGGGLVQPGRSLRLSCAASGFTFDDYAMHWVRQAPGKGLEWVSGISWNSGSIGYADSVKGRFTISRDNAKNSLHLQMNSLRAEDTALYYCANLLTPPRRYSGYDLREDYFEYWGQGTLVTVSS
VL: SSELTQDPAVSVALGQTVRITCQGDSLRSYYASWYQQKPGQAPVLVIYDRNNRPSGIPDRFSGSSSGNTASLTITGAQAEDEADYYCHSRDSSGNPLHVVFGGGTKLTVL
B8: COVIC-121 (antibody)
chain: QVQLQESGGGLVQAGGSLRLSCAASGRTFSEYAMGWFRQAPGKEREFVATISWSGGSTYYTDSVKGRFTISRDNAKNTVYLQMNSLKPDDTAVYYCAAAGLGTVVSEWDYDYDYWGQGTQVTVSSGGSGGSQVQLQESGGGLVQAGGSLRLSCAASGRTFSEYAMGWFRQAPGKEREFVATISWSGGSTYYTDSVKGRFTISRDNAKNTVYLQMNSLKPDDTAVYYCAAAGLGTVVSEWDYDYDYWGQGTQVTVSSGGGGSGGGGSKKKPLDGEYFTLQIRGRERFEMFRELNEALELKDAQAGKEPGGGGGSGGGGSQVQLQESGGGLVQAGGSLRLSCAASGRTFSEYAMGWFRQAPGKEREFVATISWSGGSTYYTDSVKGRFTISRDNAKNTVYLQMNSLKPDDTAVYYCAAAGLGTVVSEWDYDYDYWGQGTQVTVSS
B9: COVIC-367 (antibody, V domains shown)
VH: EVQLVESGGGLVQPGRSLRLSCAASGFTFDDYAMHWVRQAPGKGLEWVSGVSWNSGTIGYADSVKGRFIISRDNAKNSLYLQMRSLRAEDTALYYCAKDVSVYRFREQSYGMDVWGQGTTVTVLS
VL: QSALTQSASVSGSPGQSITISCTGTSSDIGGYNFVSWYQQHPGKAPKLMIYEVTTRPSGVSNRFSGSKSGNTASLTISGLQAEDEADYYCSSYTSSSLVVFGGGTKLALLG
B10: COVIC-149 (antibody, V domains shown)
VH: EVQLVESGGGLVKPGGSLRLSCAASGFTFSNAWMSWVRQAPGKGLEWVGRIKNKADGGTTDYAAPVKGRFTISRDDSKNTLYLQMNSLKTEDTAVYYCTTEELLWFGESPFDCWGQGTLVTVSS
VL: DIQLTQSPSFLSASVGDRVTITCWASQGINSYLAWYQQKPGKAPKLLIYAASTLQSGVPSRFSGSGSGTEFTLTISSLQPEDFTTYYCQQFNDYPRTFGPGTKVEIKR
B11: COVIC-160 (antibody, V domains shown)
VH: EVQLVESGGGLIQPGGSLRLSCAASGVTVSSNYMSWVRQAPGKGLEWVSVIYSGGSTFYADSVKGRFTISRDNSKNTLYLQMNSLRAEDTAVYYCARDLSYYGMDVWGQGTTVTVSS
VL: B10 VL with N30S, R61K, T84A, F91L, D93S, R96C, T97S, P100Q, V104L
B12: COVIC-164 (antibody, V domains shown)
VH: B11 VH with S25A, V27L, S35N, A40V, F58Y, S100G, Y101T, Y102L
VL: B10 VL with N30S, S31T, T84A, F91L, D93S, P95L, R96P, P100Q
B13: COVIC-311 (antibody)
chain 1: QVQLVESGGGVVQSGRSLRLSCAASGFTFSSYAMHWVRQAPGKGLEWVAVISHDGSNTYYEDSVKGRFTISRDNSKNTLHLQVNSLRVEDTAVYYCARAKGEVRYFDWAEQGGDYWGQGTLVTVSSGGGGSGGGGSGGGGQVQLVQSGAEVKKPGSSVKVSCKASGGTFGISWVRQAPGQGLEWMGRIIPILGTANHAQKFQGRVTITADKSTGTVYMELSSLRSEDTAVYYCARDGDSGSYYETLGFDYWGQGTLVTVSS
chain 2: SYELTQPPSVSVSPGQTARITCSGDALPKKYAYWYQQKSGQAPVLVIYEDSKRPSGIPERFSGSSSGTMATLTISGAQVEDEADYYCYSTDNSGDHGVFGGGTKLTVLGGGGSGGGGSGGGGQSALTQPPSASGSPGQSVTISCTGTSSDVGGYNYVSWYQQHPGKAPKLMIYEVNKRPSGVPDRFSGSKSGNTASLTVSGLQAEDEADYYCSSYAGSNNLVFGGGTKLTVL
B14: COVIC-385 (antibody, V domains shown)
VH: EVQLVESGGGLVQPGGSLRLSCKASGISVAPHAVTWVRQAPGKGLEWIGVIASNADTYYASWAKGRFTISRDNSKNTLYLQMNSLRAEDTAVYYCARHPGSAGYGYTYYYAMDPWGQGTLVTVSS
VL: DIQMTQSPSSLSASVGDRVTITCQASERVFYGIDWYQQKPGKAPKLLIYGASALWHGVPSRFSGSGSGTDYTLTISSLQPEDFATYYCQQGYMVPIGFGGGTKVEIK
B15: COVIC-140 (antibody, V domains shown)
VH: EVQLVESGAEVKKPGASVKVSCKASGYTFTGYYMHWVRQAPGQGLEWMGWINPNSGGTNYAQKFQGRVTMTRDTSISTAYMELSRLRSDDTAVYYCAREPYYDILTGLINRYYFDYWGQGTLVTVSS
VL: QSALTQPASVSGSPGQSITISCTGTSSDVGGYNFVSWYQQHPGKAPKLMIYEVSNRPSGVSNRFSGSKSGNTASLTISGLQAEDEADYYCSSYTSSSTRVFGGGTKLTVL
B16: COVIC-64 (antibody)
chain: QVQLQESGGGLVQAGGSLRLSCAASGRTFSEYAMGWFRQAPGKEREFVATISWSGGSTYYTDSVKGRFTISRDNAKNTVYLQMNSLKPDDTAVYYCAAAGLGTVVSEWDYDYDYWGQGTQVTVSSGGSGGSQVQLQESGGGLVQAGGSLRLSCVASGSIFSINAMDWYRQAPGKQRELVAGITSGGSTNYGDFVKGRFTISRDNAKNTVYLQMDSLKPEDTAVYYCAAEVGGWGPPRPDYWGHGTQVTVSSGGGGSGGGGSKKKPLDGEYFTLQIRGRERFEMFRELNEALELKDAQAGKEPG
B17: COVIC-142 (antibody, V domains shown)
VH: EVQLVESGGGLIQPGGSLRLSCAASGFTVSSNYMSWVRQAPGKGLEWVSVIYSGGSTYYADSVKGRFTISRDNSKNTLYLQMNSLRAEDTAVYYCARHITMVRGVIIYLKEWGQGTLVTVSS
VL: DIVMTQSPSSLSASVGDRVTITCQASQDISNYLNWYQQKPGKAPKLLIYDASNLETGVPSRFSGSGSGTDFTFTISSLQPEDIATYYCQQCDNLPITFGQGTRLEIK

In the assay the target is SARS-CoV-2 spike RBD (Wuhan-Hu-1) (Severe acute respiratory syndrome …, UniProt P0DTC2). In words: SPR.
Regarding B1, the Kd came to 2.05 nM.
The value for B2 was 135 nM.
B3 displayed a Kd of 26.3 nM.
Then B4, with 0.431 nM; and B5, with 2.06 nM; and B6, with 1.87 nM.
B7 showed a dissociation constant (Kd) of 104 nM.
The value for B8 was 195 nM; that for B9 was 0.0301 nM.
Then B10, with 22.3 nM; and B11, with 14.7 nM.
The value for B12 was 2.25 nM; that for B13 was 3.03 nM.
In turn, B14 registered a dissociation constant Kd of 0.0327 nM.
For the molecule B15, the Kd came out at 190 nM.
B16 returned a dissociation constant Kd of 169 nM.
Then B17, with 16.5 nM.
